Measured values reported in PMC5821440.
Numbered stars: 1 amine (or outer) side, 2 acyl side, 3 side chain; on linkers, the order of the positions; unused ones are H or OH. * marks the point of attachment. pNA = O=[N+]([O-])c1ccc(N*)cc1; Suc = O=C(CCC(=O)[*:2])[*:1]

Assays:
[1] = biological target: Pro21717-CD, catalytic domain of the cold-active subtilisin-like serine protease Pro21717 from Pseudoalteromonas arctica PAMC 21717 (Pseudoalteromonas arctica PAMC 21717); assay: not stated; purified Pro21717-CD in solution, three days after refolding; method in S2 Fig, not shown
[2] = biological target: Pro21717-CD, catalytic domain of the cold-active subtilisin-like serine protease Pro21717 from Pseudoalteromonas arctica PAMC 21717 (Pseudoalteromonas arctica PAMC 21717)

Row | Molecule | stoichiometry N [1] | relative proteolytic activity (%) on N-succinyl-AAPF-p-nitroanilide, 0.83 mM, 30°C, 5 min (the best peptide substrate, set to 100) [2]
1 | Pro21717-CD, catalytic domain of the cold-active subtilisin-like serine protease Pro21717 from Pseudoalteromonas arctica PAMC 21717 (domain or fragment) | 2 | 
2 | Suc-AAPF-pNA [N-succinyl-Ala-Ala-Pro-Phe-p-nitroanilide] |  | 100%
